The values below come from patent US20140378659A1.

The target in this assay is human oxidized LDL (copper-oxidized low-density lipoprotein from plasma of a healthy individual) (human) (UniProt P04114). In words: cell-based or functional assay.

B1: Human-derived Del-1 (developmental endothelial locus-1), recombinant protein having a His tag added to the C-terminus (protein, not shown: small tags and cut ends)
chain: DICDPNPCENGGICLPGLADGSFSCECPDGFTDPNCSSVVEVASDEEEPTSAGPCTPNPCHNGGTCEISEAYRGDTFIGYVCKCPRGFNGIHCQHNINECEVEPCKNGGICTDLVANYSCECPGEFMGRNCQYKCSGPLGIEGGIISNQQITASSTHRALFGLQKWYPYYARLNKKGLINAWTAAENDRWPWIQINLQRKMRVTGVITQGAKRIGSPEYIKSYKIAYSNDGKTWAMYKVKGTNEDMVFRGNIDNNTPYANSFTPPIKAQYVRLYPQVCRRHCTLRMELLGCELSGCSEPLGMKSGHIQDYQITASSIFRTLNMDMFTWEPRKARLDKQGKVNAWTSGHNDQSQWLQVDLLVPTKVTGIITQGAKDFGHVQFVGSYKLAYSNDGEHWTVYQDEKQRKDKVFQGNFDNDTHRKNVIDPPIYARHIRILPWSWYGRITLRSELLGCTEEE
In turn, B1 showed an uptake of DiI-labeled oxidized LDL into LOX-1-expressing cells (fluorescence intensity) above 90%.
